Measured values published in the RNAGym collection of RNA variant scans (doi:10.7554/elife.80360).

B1: HDV Ribozyme (parent)
chain: GGCCGGCAUGGUCCCAGCCUCCUCGCUGGCGCCGGCUGGGCAACAUUCCGAGGGGACCGUCCCCUCGGUAAUGGCGAAUGGGACCCA

Variants of: B1
Assay: self-cleavage, relative activity (ratio to wild type); higher = more cleavage; co-transcriptional

Variant | self-cleavage
GGCCGGCAUGGUCCCAGCCUCCUCGCUGGCGCCGGCUGGGCAACACUCCGAGGGGACCGUCCUCUCGGUAAUGGCGAAUGGGACCCA [U46C C63U] | 0.671
GGCCGGCAUGGUCCCAGCCUCCUCGCUGGCGCCGGCUGGGCAACACUCCGAGGGGACCGUCCACUCGGUAAUGGCGAAUGGGACCCA [U46C C63A] | 0.718
GGCCGGCAUGGUCCCAGCCUCCUCGCUGGCGCCGGCUGGGCAACACUCCGAGGGGACCGUCCCCUCGGUAAUGGCGAAUGGGACCCG [U46C A87G] | 0.727
GGCCGGCAUGGUCCCAGCCUCCUCGCUGGCGCCGGCUGGGCAACACUCCGAGGGGAACGUCCCCUCGGUAAUGGCGAAUGGGACCCA [U46C C57A] | 1.22
GGCCGGCAUGGUCCCAGCCUCCUCGCUGGCGCCGGCUGGGCAACACUCCGAGGGGACUGUCCCCUCGGUAAUGGCGAAUGGGACCCA [U46C C58U] | 0.7
GGCCGGCAUGGUCCCAGCCUCCUCGCUGGCGCCGGCUGGGCAACACUCCGAAGGGACCGUCCCCUCGGUAAUGGCGAAUGGGACCCA [U46C G52A] | 1.03
GGCCGGCAUGGUCCCAGCCUCCUCGCUGGCGCCGGCUGGGCAACACUCAGAGGGGACCGUCCCCUCGGUAAUGGCGAAUGGGACCCA [U46C C49A] | 0.54
GGCCGGCAUGGUCCCAGCCUCCUCGCUGGCGCCGGCUGGGCAACACUCCGAGGGGACCGUCCCCUGGGUAAUGGCGAAUGGGACCCA [U46C C66G] | 0.594
GGCCGGCAUGGUCCCAGCCUCCUCGCUGGCGCCGGCUGGGCAACAAUCCGAGGGGACCGUCCCCUCGGUAAUGGCUAAUGGGACCCA [U46A G76U] | 0.954
GGCCGGCAUGGUCCCAGCCUCCUCGCUGGCGCCGGCUGGGCAACACUCCGAGGGGACCGUCCCAUCGGUAAUGGCGAAUGGGACCCA [U46C C64A] | 0.569
GGCCGGCAUGGUCCCAGCCUCCUCGCUGGCGCCGGCUGGGCAACAAUCCGAGGGGACCGUCCCCUCAGUAAUGGCGAAUGGGACCCA [U46A G67A] | 0.703
GGCCGGCAUGGUCCCAGCCUCCUCGCUGGCGCCGGCUGGGCAACAACCCGAGGGGACCGUCCCCUCGGUAAUGGCGAAUGGGACCCA [U46A U47C] | 0.532
GGCCGGCAUGGUCCCAGCCUCCUCGCUGGCGCCGGCUGGGCAACAAACCGAGGGGACCGUCCCCUCGGUAAUGGCGAAUGGGACCCA [U46A U47A] | 0.867
GGCCGGCAUGGUCCCAGCCUCCUCGCUGGCGCCGGCUGGGCAACACUCCGAGGGGACCGUACCCUCGGUAAUGGCGAAUGGGACCCA [U46C C61A] | 1.09
GGCCGGCAUGGUCCCAGCCUCCUCGCUGGCGCCGGCUGGGCAACACUCCGAGUGGACCGUCCCCUCGGUAAUGGCGAAUGGGACCCA [U46C G53U] | 0.831
GGCCGGCAUGGUCCCAGCCUCCUCGCUGGCGCCGGCUGGGCAACAAUCCGAGGGGACCGUCCCCUCGGAAAUGGCGAAUGGGACCCA [U46A U69A] | 1.08

Variant | self-cleavage
GGCCGGCAUGGUCCCAGCCUCCUCGCUGGCGCCGGCUGGGCAACAAUCCGAGGGGACCGUCCCCUCGGGAAUGGCGAAUGGGACCCA [U46A U69G] | 0.793
GGCCGGCAUGGUCCCAGCCUCCUCGCUGGCGCCGGCUGGGCAACAAUCCGAGGGGACCGUCCCCUCGGUAAUGGCGAAUGUGACCCA [U46A G81U] | 0.271
GGCCGGCAUGGUCCCAGCCUCCUCGCUGGCGCCGGCUGGGCAACACUUCGAGGGGACCGUCCCCUCGGUAAUGGCGAAUGGGACCCA [U46C C48U] | 0.655
GGCCGGCAUGGUCCCAGCCUCCUCGCUGGCGCCGGCUGGGCAACACUCCUAGGGGACCGUCCCCUCGGUAAUGGCGAAUGGGACCCA [U46C G50U] | 0.779
GGCCGGCAUGGUCCCAGCCUCCUCGCUGGCGCCGGCUGGGCAACAAUCCGAGGGGACCGGCCCCUCGGUAAUGGCGAAUGGGACCCA [U46A U60G] | 0.939
GGCCGGCAUGGUCCCAGCCUCCUCGCUGGCGCCGGCUGGGCAACAAUCCGAGGGGACCGCCCCCUCGGUAAUGGCGAAUGGGACCCA [U46A U60C] | 0.752
GGCCGGCAUGGUCCCAGCCUCCUCGCUGGCGCCGGCUGGGCAACACUCCGAGGGGGCCGUCCCCUCGGUAAUGGCGAAUGGGACCCA [U46C A56G] | 0.643
GGCCGGCAUGGUCCCAGCCUCCUCGCUGGCGCCGGCUGGGCAACACUCCGAGGGGACCGUCCCCUCGGUAAUGGCGAAUGGGACGCA [U46C C85G] | 0.675
GGCCGGCAUGGUCCCAGCCUCCUCGCUGGCGCCGGCUGGGCAACACUCCGAGGGGACCGUCCCCUCGGUAAUGGCGAAUGGGACACA [U46C C85A] | 0.617
GGCCGGCAUGGUCCCAGCCUCCUCGCUGGCGCCGGCUGGGCAACACUCCGAGGGGACCGUCCCCUCGGUAAUGGCGAAUGGGACUCA [U46C C85U] | 0.615
GGCCGGCAUGGUCCCAGCCUCCUCGCUGGCGCCGGCUGGGCAACAAUCCGAGGGGACCGUCCCCUCGGUAAUGGCGAAUGGUACCCA [U46A G82U] | 0.119
GGCCGGCAUGGUCCCAGCCUCCUCGCUGGCGCCGGCUGGGCAACACUCCGAGGGGACCGUCCCCUCGGUAAUGGCGAAUGGGACCUA [U46C C86U] | 0.697
GGCCGGCAUGGUCCCAGCCUCCUCGCUGGCGCCGGCUGGGCAACAAUCCGAGGGGACCGUCCCCUCGGUAAUGACGAAUGGGACCCA [U46A G74A] | 0.519
GGCCGGCAUGGUCCCAGCCUCCUCGCUGGCGCCGGCUGGGCAACAAUCCGAGGGGACCGUCCCCUCGGUAAUGGCGAACGGGACCCA [U46A U79C] | 0.215
GGCCGGCAUGGUCCCAGCCUCCUCGCUGGCGCCGGCUGGGCAACACUCCGAGGGGACCGUCCCCUCGGUAAUGGCGAAUGGGGCCCA [U46C A83G] | 0.402
GGCCGGCAUGGUCCCAGCCUCCUCGCUGGCGCCGGCUGGGCAACAAUCCGAGGGGACCGUCCCCUCGCUAAUGGCGAAUGGGACCCA [U46A G68C] | 0.633
